# According to article doi:10.1101/2025.09.17.674891 (bioRxiv, 2025):
# B1: V1WT_41 IgG (antibody, V domains shown)
# VH: QVQLQESGPGLVKPSETVSVTCTVSGGSITRSNYYWGWIRQPPGKGLEWIGSIFYNGNTNYNPSLKSRLTISVDTSKNQFSLKLSSVTAADTAVYYCARTAPYYYDRSGYYQKEEYFQRWGQGTLVTVSS
# VL: EIVMTQSPSTLSASVGDRVTITCRASQSISTWLAWYQQKPGKAPNLLIYQASSLESGVPSRFSGSGSGTEFTLTISSLQPDDFATYYCQQYNNYPRTFGQGTKLEIK
# B2: V1WT_06 IgG (antibody, V domains shown)
# VH: EVQLVQSGAEVKKPGASVKVSCKASGYTFSSHGISWVRQAPGQGLEWMGWISTYNGNTNSAQNLQGRVTMTADTSTSTAYMELRSLRSDDTAVYYCARGPWGYCSGTSCYYWTPDNPAYSYHGMDVWGQGTTVTVSS
# VL: not shown
# B3: V1WT_06 Fab (Fab, V domains shown)
# VH: B2 VH
# VL: not shown
# B4: VA14_26 IgG (antibody, V domains shown)
# VH: QVQLQQWGAGLLKPSDTLSLTCGISGGPFSGYYWSWIRQPPGKGLEWLGEINHSGITTYNPSLKSRGTISVDTSKRQISLKLASVTAADTAVYYCARFAYGDYGWDYSSDMDVWGKGTTVTVSS
# VL: DIQLTQSPSTLSASVGDRVTITCRASQSISTWLAWHQQIPGKAPKLLIYRASTLQSGVPSRFSGSGSGTEFTLTISSLQPDDFATYYCQQYYSVRTFGQGTKVDIK
# Legend:
# [1] = biological target: RacCS203 RBD (recombinant) (Bat coronavirus RacCS203); test: ELISA
# [2] = biological target: T1, SARS-CoV-2 RBD (recombinant) (SARS-CoV-2, UniProt P0DTC2); test: ELISA
# Rs4231 RBD (recombinant) = Rs4231 RBD (recombinant) (Bat SARS-like coronavirus, isolate …, UniProt A0A2D1PXA9); test: ELISA
# WIV-1 RBD (recombinant) = WIV-1 RBD (recombinant) (bat sarbecovirus WIV-1, UniProt U5WI05); test: ELISA
# [3] = biological target: T1, SARS-CoV-2 RBD (recombinant); test: flow cytometry on cells
binder,measurement,setting,value
B1,binding result,[1],binds
same,binding result,[2],binds
same,binding result,Rs4231 RBD (recombinant),binds
B2,fold increase in binding of the IgG over the Fab,[2],1.3 fold
B3,binding result,WIV-1 RBD (recombinant),binds
B4,binding result,[3],binds
